Source: paper PMC8708588, “Easy Expression and Purification of Fluorescent N-Terminal BCL11B CCHC Zinc Finger Domain” (Molecules, 2021)

T1: CyPet-BCL11B_(42-94) (UniProt Q9C0K0 42-94)
T1 construct: B-cell lymphoma/leukemia 11B (BCL11B), N-terminal atypical CCHC zinc finger domain, amino acids 42-94; codon-optimized insert; Order on the chain: His6, CyPet, flexible linker (GGGGS)3, TEV-cleaving site, XhoI site, BCL11B 42-94, KpnI site; Fusion of 36 kDa; CyPet already has lysine at position 206; also called fluorescently tagged BCL11B_(42-94); CyPet-tagged N-terminal BCL11B CCHC zinc finger …
T1 sequence (looked up): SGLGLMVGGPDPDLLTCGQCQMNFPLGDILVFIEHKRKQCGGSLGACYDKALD


Legend:
[1] = target: the molecule itself; assay: SEC; Superdex 200 Increase 3.2/300 on ÄKTAmicro; sizes from a calibration curve with protein standards
CyPet-BCL11B_(42-94) = target: T1, CyPet-BCL11B_(42-94); assay: FRET or BRET; CyPet- and mEYFP-tagged domain mixed 1:1, total protein 200 µg/mL, 20 mM HEPES, 150 mM NaCl, 1 mM DTT, pH 7.4; incubated 48 h at 4 °C; excitation 400 nm, emission spectra 420-700 nm at room temperature; conditions: both partners purified

| binding result (CyPet-BCL11B_(42-94)) | Binder | stoichiometry N [1] | binding result [1] |
| --- | --- | --- | --- |
| – | untagged BCL11B_(42-94) zinc finger domain (domain or fragment, B-cell lymphoma/leukemia 11B (BCL11B), N-terminal atypical CCHC zinc finger domain, amino acids 42-94; 5.5 kDa; source: E. coli NiCo21 (DE3); TEV digest of purified CyPet- or mEYFP-BCL11B_(42-94), flow-through of IMAC; not shown: His6, N-terminal, cleaved; CyPet or mEYFP, N-terminal, cleaved) GLESGLGLMVGGPDPDLLTCGQCQMNFPLGDILVFIEHKRKQCGGSLGACYDKALD | 4 | – |
| binds | mEYFP-BCL11B_(42-94) (domain or fragment, UniProt Q9C0K0 42-94, looked up, B-cell lymphoma/leukemia 11B (BCL11B), N-terminal atypical CCHC zinc finger domain, amino acids 42-94; codon-optimized insert; Fusion of 36 kDa; also called fluorescently tagged BCL11B_(42-94); source: E. coli NiCo21 (DE3), purified (IMAC, HisTrap excel); not shown: His6, N-terminal, kept; mEYFP (EYFP with A206K), N-terminal, kept) SGLGLMVGGPDPDLLTCGQCQMNFPLGDILVFIEHKRKQCGGSLGACYDKALD | – | binds |
